Values joined by “and” are separate entries in the source; they are usually repeats but may differ in a detail not shown here. Equal values may be shown once.
Key:
Type in all cases: in vivo, Sprague-Dawley (SD) rats
[1] = tested on: MCAO ischemia-reperfusion model; experiment: MCAO ischemia-reperfusion model, rat Neurological Severity Scores (NSS) (Example 6)
From the text: 3) Cerebral ischemia reperfusion surgery: • A. Isolating and exposing blood vessels: the skin of the surgical area was shaved, and the rats were placed under a surgical microscope. The skin of the rat was cut along the midline with ophthalmic scissors, with a cut of about 2 cm length. Through the right neck of the rat, the muscle tissue of the right neck was bluntly isolated and opened with a microforcep to expose the right common carotid artery (CCA), and then isolated upward along the common carotid artery to further expose the external carotid artery (ECA) and internal carotid artery (ICA); • B. The proximal end of CCA was ligated and the CCA at the Y-shaped branch was temporarily clamped; the ligated site of CCA to the clamped site of ICA were threaded, tied with a loose knot (pre-ligation) for later use, and a small incision at the proximal end of the pre-ligation was made; • C. Inserting the suture emboli: Suture emboli No. 4-0 was inserted through the incision of CCA, pushed slowly and gently into the internal carotid artery, and stopped temporarily at the artery clamp of ICA. The pre-ligation thread was tied tightly (to avoid severe bleeding when pushing the suture emboli), then the artery clamp that blocked the blood flow of ICA was removed, and the suture emboli was immediately pushed into ICA until entering into the cranium. One should be careful not to insert the suture emboli into the pterygopalatine artery, which is another branch of the internal carotid artery and is one of the extra-cranial branches of ICA. […] Then the insertion was terminated and the time was recorded. […] Note: The first digit of the animal number represents the group (1, 2, 3 and 4 represent the model control group, S3 group, t-PA group and S3+t-PA group respectively), and the second letter represents the gender (M is male), the last three digits represent the animal serial number. a means giving 3 mL S3 and 3 mL sterile water for injection, b means giving 3 mL t-PA and 3 mL sterile water for injection, c means giving 3 mL S3 and 3 mL t-PA. • Route of administration: tail vein injection; • Administration time: immediately after ischemia-reperfusion (within 5 minutes); • Dosing frequency and cycle: 1 dose; • The day of modeling was defined as D0, and the day before was defined as D-1. • Measurement time: 24 hours before the modeling, 24 and 72 hours after the modeling; • Animals measured: all the surviving animals planned to be measured; • Measurement method: a motor function test, sensory test, balance test, and reflex and abnormal behavior test were performed on animals, according to the rat for details. […]

[2] = tested on: MCAO ischemia-reperfusion model; experiment: MCAO ischemia-reperfusion model, TTC staining, cerebral infarct area and inhibition rate (Example 6)
[3] = Body weight of MCAO model animals (Example 6); conditions: individual animal
Method: • Animals measured: all the surviving experimental animals planned to be measured; • Measurement time: the body weight was measured at least twice during the adaptation period, once 24 hours before surgery for grouping, and once 24 hours after surgery.
Cerebral ischemia-reperfusion is an acute injury model, wherein the weight of experimental animals will drop dramatically after MCAO modeling. Thus, the weight of experimental animals is one of the most basic sensitive parameters to comprehensively reflect the health status of animals. In this experiment, the body weight of all the animals was monitored on the day before the surgery and on the first day after the surgery, and the changes of animal's body weight were observed and recorded.

[4] = 3 mg/kg i.v. immediately after reperfusion, 24 h after surgery, group mean ± SD

B1: t-PA: recombinant human TNK tissue-type plasminogen activator for injection (Mingfule) purchased from Guangzhou Mingkang Bioengineering Co., Ltd. (protein, UniProt P00750 36-562, looked up, variant T103N N117Q K296A H297A R298A R299A)
Tissue-type plasminogen …: SYQVICRDEKTQMIYQQHQSWLRPVLRSNRVEYCWCNSGRAQCHSVPVKSCSEPRCFNGGTCQQALYFSDFVCQCPEGFAGKCCEIDTRATCYEDQGISYRGNWSTAESGAECTNWQSSALAQKPYSGRRPDAIRLGLGNHNYCRNPDRDSKPWCYVFKAGKYSSEFCSTPACSEGNSDCYFGNGSAYRGTHSLTESGASCLPWNSMILIGKVYTAQNPSAQALGLGKHNYCRNPDGDAKPWCHVLKNRRLTWEYCDVPSCSTCGLRQYSQPQFRIKGGLFADIASHPWQAAIFAAAAASPGERFLCGGILISSCWILSAAHCFQERFPPHHLTVILGRTYRVVPGEEEQKFEVEKYIVHKEFDDDTYDNDIALLQLKSDSSRCAQESSVVRTVCLPPADLQLPDWTECELSGYGKHEALSPFYSERLKEAHVRLYPSSRCTSQHLLNRTVTDNMLCAGDTRSGGPQANLHDACQGDSGGPLVCLNDGRMTLVGIISWGLGCGQKDVPGVYTKVTNYLDWIRDNMRP
modifications: tenecteplase (TNK-tPA), Mingfule
[1]; 3 mg/kg i.v. immediately after reperfusion, after surgery, individual animal
  NSS D2, individual animals: 7 (2×) and 8 and 7.5 (2×) and 6.5 (2×) and 6 and 5.5
[1]; 3 mg/kg i.v. immediately after reperfusion, one day after surgery, group mean ± SD
  NSS D 2: 6.83±0.75
[1]; one day after surgery, relative to model control group, group mean ± SD
  NSS reduction rate: 11.83±9.62%
[1]; relative to model control group, individual animal
  NSS reduction rate, individual animals: 9.68% (2×) and −3.23% and 3.23% (2×) and 16.13% (2×) and 22.58% and 29.03%
[2]; 3 mg/kg i.v. immediately after reperfusion, 24 h after modeling, individual animal
  Infarct area, individual animals: 19.069% and 18.394% and 16.546% and 21.064% and 19.195% and 18.719% and 16.209% and 18.356% and 19.147%
[2]; [4]
  Infarct area weight: 0.26 ± 0.022 g
  infarct area: 18.522±1.372%
[2]; 3 mg/kg i.v. immediately after reperfusion, 24 h after surgery, vs model control, group mean ± SD
  Cerebral infarct inhibition rate: 22.802±5.719%
[2]; 24 h after modeling, individual animal
  Weight of infarct area, individual animals: 0.291 g and 0.268 g and 0.229 g and 0.289 g and 0.272 g and 0.260 g and 0.230 g and 0.239 g and 0.265 g
[2]; vs model control group, individual animal
  Cerebral infarct inhibition rate, individual animals: 20.521% and 23.336% and 31.037% and 12.207% and 19.996% and 21.984% and 32.445% and 23.493% and 20.196%
[3]; after surgery and administration
  Body weight D 2, individual animals: 230.57 g and 203.58 g and 203.63 g and 199.35 g and 205.31 g and 223.28 g and 223.30 g and 217.60 g and 200.68 g
[3]; before surgery (baseline)
  Body weight D 0, individual animals: 289.15 g and 246.68 g and 263.91 g and 259.23 g and 273.31 g and 281.77 g and 281.59 g and 273.94 g and 251.02 g
